From paper PMC3233348 (2012)
Blank lines part the entries; values can stand above or below the molecule they belong to.

Tests used:
[1] = target: methylamine dehydrogenase (MADH) (Paracoccus denitrificans) (UniProt P22619); conditions: cited from earlier work
[2] = target: T1, methylamine dehydrogenase (MADH) (Paracoccus denitrificans, UniProt P22619); assay: steady-state kinetics competitive inhibition
T1 chain 1: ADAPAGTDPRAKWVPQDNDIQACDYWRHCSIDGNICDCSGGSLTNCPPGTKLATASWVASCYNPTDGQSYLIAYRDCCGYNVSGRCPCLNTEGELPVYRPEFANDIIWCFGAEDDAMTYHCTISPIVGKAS
T1 chain 2: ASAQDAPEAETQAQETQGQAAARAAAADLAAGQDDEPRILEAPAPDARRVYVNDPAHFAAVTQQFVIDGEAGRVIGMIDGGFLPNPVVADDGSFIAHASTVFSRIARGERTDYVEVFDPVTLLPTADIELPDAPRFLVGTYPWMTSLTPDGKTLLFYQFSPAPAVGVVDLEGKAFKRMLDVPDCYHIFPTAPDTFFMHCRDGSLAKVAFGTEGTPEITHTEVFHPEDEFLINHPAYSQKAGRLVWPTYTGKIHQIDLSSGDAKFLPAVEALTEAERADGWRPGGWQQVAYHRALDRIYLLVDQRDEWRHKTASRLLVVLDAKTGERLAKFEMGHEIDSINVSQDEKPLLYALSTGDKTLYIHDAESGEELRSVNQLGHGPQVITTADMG

Molecule: amicyanin (from UniProt P22364)
- Kd [1]: 5 µM

- Ki [2]: 7.2 µM
B1: M98K amicyanin (protein)
chain: DKATIPSESPFAAAEVADGAIVVDIAKMKYETPELHVKVGDTVTWINREAMPHNVHFVAGVLGEAALKGPMKKKEQAYSLTFTEAGTYDYHCTPHPFMRGKVVVE
